Assay results taken from PMC8782923, “A Klotho-derived peptide protects against kidney fibrosis by targeting TGF-β signaling” (Nature Communications, 2022).

Target: Recombinant TGF-β receptor 2 protein (UniProt P37173)
Assay: SPR; Biacore T200, 25 °C; TβR2 amine-coupled on a CM5 chip (50 µg/ml in 10 mM acetate pH 4.0); peptides in PBS injected at 60 µl/min, 180 s association, 540 s dissociation; 1:1 binding model

Recombinant TGF-β receptor 2 protein, sequence (P37173 23-166): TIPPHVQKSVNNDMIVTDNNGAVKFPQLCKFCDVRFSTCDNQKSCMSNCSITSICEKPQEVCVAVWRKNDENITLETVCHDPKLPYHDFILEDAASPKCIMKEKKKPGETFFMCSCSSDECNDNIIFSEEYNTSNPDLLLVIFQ

koff: 0.00233 s⁻¹
Substance: KP12 (peptide)
